# Measured values as given in patent US20130252884A1 (Novo Nordisk, published 2013).
# B1: [-1A, 71C, 121Q, 166F, 167G, 168L, 171L, 172E, 173A, 174V, des179-181] FGF-21 (ligand)
# chain: AHPIPDSSPLLQFGGQVRQRYLYTDDAQQTEAHLEIREDGTVGGAADQSPESLLQLKALKPGVIQILGVKTCRFLCQRPDGALYGSLHFDPEACSFRELLLEDGYNVYQSEAHGLPLHLPGQKSPHRDPAPRGPARFLPLPGLPPALPEPPGILAPQPPDVGSSDPFGLVGLEAVRSPS
# B2: Derivative 101: Analog 10 with modifying moiety III on the sulphur of Cys 71 (ligand)
# chain: AHPIPDSSPLLQFGGQVRQRYLYTDDAQQTEAHLEIREDGTVGGAADQSPESLLQLKALKPGVIQILGVKTCRFLCQRPDGALYGSLHFDPEACSFRELLLEDGYNVYQSEAHGLPLHLPGQKSPHRDPAPRGPARFLPLPGLPPALPEPPGILAPQPPDVGSSDPFGLVGLEAVRSPS
# modifications: Cys 71: {2-[2-(2-{2-[2-(2-{2-[(S)-4-Carboxy-4-(17-carboxyheptadecanoylamino)butyrylamino]ethoxy}ethoxy)acetylamino]ethoxy}ethoxy)acetylamino]ethylcarbamoyl}methyl (modifying moiety III) on the sulphur atom
# B3: Met-FGF21 (mature human FGF21 with an added N-terminal methionine) (ligand)
# chain: MHPIPDSSPLLQFGGQVRQRYLYTDDAQQTEAHLEIREDGTVGGAADQSPESLLQLKALKPGVIQILGVKTSRFLCQRPDGALYGSLHFDPEACSFRELLLEDGYNVYQSEAHGLPLHLPGNKSPHRDPAPRGPARFLPLPGLPPALPEPPGILAPQPPDVGSSDPLSMVGPSQGRSPSYAS
# B4: [-1A, S71C, N121Q, L166F, S167G, M168L, G174V, Y179F, A180E] FGF-21 (ligand)
# chain: AHPIPDSSPLLQFGGQVRQRYLYTDDAQQTEAHLEIREDGTVGGAADQSPESLLQLKALKPGVIQILGVKTCRFLCQRPDGALYGSLHFDPEACSFRELLLEDGYNVYQSEAHGLPLHLPGQKSPHRDPAPRGPARFLPLPGLPPALPEPPGILAPQPPDVGSSDPFGLVGPSQVRSPSFES
# B5: Derivative 18: Analog 2 with modifying moiety III on the sulphur of Cys 71 (ligand)
# chain: AHPIPDSSPLLQFGGQVRQRYLYTDDAQQTEAHLEIREDGTVGGAADQSPESLLQLKALKPGVIQILGVKTCRFLCQRPDGALYGSLHFDPEACSFRELLLEDGYNVYQSEAHGLPLHLPGNKSPHRDPAPRGPARFLPLPGLPPALPEPPGILAPQPPDVGSSDPFGLVGPSQVRSPSFES
# modifications: Cys 71: {2-[2-(2-{2-[2-(2-{2-[(S)-4-Carboxy-4-(17-carboxyheptadecanoylamino)butyrylamino]ethoxy}ethoxy)acetylamino]ethoxy}ethoxy)acetylamino]ethylcarbamoyl}methyl (modifying moiety III) on the sulphur atom
# B6: Derivative 102: Analog 11 with modifying moiety III on the sulphur of Cys 71 (ligand)
# chain: AHPIPDSSPLLQFGGQVRQRYLYTDDAQQTEAHLEIREDGTVGGAADQSPESLLQLKALKPGVIQILGVKTCRFLCQRPDGALYGSLHFDPEACSFRELLLEDGYNVYQSEAHGLPLHLPGQKSPHRDPAPRGPARFLPLPGLPPALPEPPGILAPQPPDVGSSDPFSLVGPSAVRSPSFAS
# modifications: Cys 71: {2-[2-(2-{2-[2-(2-{2-[(S)-4-Carboxy-4-(17-carboxyheptadecanoylamino)butyrylamino]ethoxy}ethoxy)acetylamino]ethoxy}ethoxy)acetylamino]ethylcarbamoyl}methyl (modifying moiety III) on the sulphur atom
# B7: [-1A, S71C, N121Q, L166F, M168L, Q173A, G174V, Y179F] FGF21 (ligand)
# chain: AHPIPDSSPLLQFGGQVRQRYLYTDDAQQTEAHLEIREDGTVGGAADQSPESLLQLKALKPGVIQILGVKTCRFLCQRPDGALYGSLHFDPEACSFRELLLEDGYNVYQSEAHGLPLHLPGQKSPHRDPAPRGPARFLPLPGLPPALPEPPGILAPQPPDVGSSDPFSLVGPSAVRSPSFAS
# B8: [-1A, S71C, L166F, S167G, M168L, G174V, Y179F, A180E] FGF-21 (ligand)
# chain: AHPIPDSSPLLQFGGQVRQRYLYTDDAQQTEAHLEIREDGTVGGAADQSPESLLQLKALKPGVIQILGVKTCRFLCQRPDGALYGSLHFDPEACSFRELLLEDGYNVYQSEAHGLPLHLPGNKSPHRDPAPRGPARFLPLPGLPPALPEPPGILAPQPPDVGSSDPFGLVGPSQVRSPSFES
# B9: [-1A, S71C, N121Q, L166F, S167G, M168L, G174V, Y179F, A180E, des181] FGF-21 (ligand)
# chain: AHPIPDSSPLLQFGGQVRQRYLYTDDAQQTEAHLEIREDGTVGGAADQSPESLLQLKALKPGVIQILGVKTCRFLCQRPDGALYGSLHFDPEACSFRELLLEDGYNVYQSEAHGLPLHLPGQKSPHRDPAPRGPARFLPLPGLPPALPEPPGILAPQPPDVGSSDPFGLVGPSQVRSPSFE
# B10: [-1A, 121Q, 166F, 167G, 168L, 171L, 172E, 173A, 174V, 179F, 180E, des181] FGF-21 (ligand)
# chain: AHPIPDSSPLLQFGGQVRQRYLYTDDAQQTEAHLEIREDGTVGGAADQSPESLLQLKALKPGVIQILGVKTSRFLCQRPDGALYGSLHFDPEACSFRELLLEDGYNVYQSEAHGLPLHLPGQKSPHRDPAPRGPARFLPLPGLPPALPEPPGILAPQPPDVGSSDPFGLVGLEAVRSPSFE
# B11: Derivative 21: Analog 5 with modifying moiety III on the sulphur of Cys 71 (ligand)
# chain: AHPIPDSSPLLQFGGQVRQRYLYTDDAQQTEAHLEIREDGTVGGAADQSPESLLQLKALKPGVIQILGVKTCRFLCQRPDGALYGSLHFDPEACSFRELLLEDGYNVYQSEAHGLPLHLPGQKSPHRDPAPRGPARFLPLPGLPPALPEPPGILAPQPPDVGSSDPFGLVGPSQVRSPSFE
# modifications: Cys 71: {2-[2-(2-{2-[2-(2-{2-[(S)-4-Carboxy-4-(17-carboxyheptadecanoylamino)butyrylamino]ethoxy}ethoxy)acetylamino]ethoxy}ethoxy)acetylamino]ethylcarbamoyl}methyl (modifying moiety III) on the sulphur atom
# B12: Derivative 31: Analog 7 with modifying moiety IV on the sulphur of Cys 71 (ligand)
# chain: AHPIPDSSPLLQFGGQVRQRYLYTDDAQQTEAHLEIREDGTVGGAADQSPESLLQLKALKPGVIQILGVKTCRFLCQRPDGALYGSLHFDPEACSFRELLLEDGYNVYQSEAHGLPLHLPGQKSPHRDPAPRGPARFLPLPGLPPALPEPPGILAPQPPDVGSSDPFGLVGLEAVRSPSFE
# modifications: Cys 71: {2-[2-(2-{2-[2-(2-{2-[(S)-4-Carboxy-4-(19-carboxynonadecanoylamino)butyrylamino]ethoxy}ethoxy)acetylamino]ethoxy}ethoxy)acetylamino]ethylcarbamoyl}methyl (modifying moiety IV) on the sulphur atom
# B13: Derivative 23: Analog 7 with modifying moiety III on the sulphur of Cys 71 (ligand)
# chain: AHPIPDSSPLLQFGGQVRQRYLYTDDAQQTEAHLEIREDGTVGGAADQSPESLLQLKALKPGVIQILGVKTCRFLCQRPDGALYGSLHFDPEACSFRELLLEDGYNVYQSEAHGLPLHLPGQKSPHRDPAPRGPARFLPLPGLPPALPEPPGILAPQPPDVGSSDPFGLVGLEAVRSPSFE
# modifications: Cys 71: {2-[2-(2-{2-[2-(2-{2-[(S)-4-Carboxy-4-(17-carboxyheptadecanoylamino)butyrylamino]ethoxy}ethoxy)acetylamino]ethoxy}ethoxy)acetylamino]ethylcarbamoyl}methyl (modifying moiety III) on the sulphur atom
# B14: [-1A, S71C, N121Q, L166F, S167G, M168L, P171L, S172E, Q173A, G174V, Y179F, A180E, des181] FGF-21 (ligand)
# chain: AHPIPDSSPLLQFGGQVRQRYLYTDDAQQTEAHLEIREDGTVGGAADQSPESLLQLKALKPGVIQILGVKTCRFLCQRPDGALYGSLHFDPEACSFRELLLEDGYNVYQSEAHGLPLHLPGQKSPHRDPAPRGPARFLPLPGLPPALPEPPGILAPQPPDVGSSDPFGLVGLEAVRSPSFE
# B15: [-1A, S71C, L166F, S167G, M168L, P171L, S172E, Q173A, G174V, Y179F, A180E, des181] FGF-21 (ligand)
# chain: AHPIPDSSPLLQFGGQVRQRYLYTDDAQQTEAHLEIREDGTVGGAADQSPESLLQLKALKPGVIQILGVKTCRFLCQRPDGALYGSLHFDPEACSFRELLLEDGYNVYQSEAHGLPLHLPGNKSPHRDPAPRGPARFLPLPGLPPALPEPPGILAPQPPDVGSSDPFGLVGLEAVRSPSFE
# B16: Derivative 19: Analog 3 with modifying moiety III on the sulphur of Cys 71 (ligand)
# chain: AHPIPDSSPLLQFGGQVRQRYLYTDDAQQTEAHLEIREDGTVGGAADQSPESLLQLKALKPGVIQILGVKTCRFLCQRPDGALYGSLHFDPEACSFRELLLEDGYNVYQSEAHGLPLHLPGNKSPHRDPAPRGPARFLPLPGLPPALPEPPGILAPQPPDVGSSDPFGLVGLEAVRSPSFE
# modifications: Cys 71: {2-[2-(2-{2-[2-(2-{2-[(S)-4-Carboxy-4-(17-carboxyheptadecanoylamino)butyrylamino]ethoxy}ethoxy)acetylamino]ethoxy}ethoxy)acetylamino]ethylcarbamoyl}methyl (modifying moiety III) on the sulphur atom
# B17: Derivative 17: Analog 1 with modifying moiety III on the sulphur of Cys 71 (ligand)
# chain: AHPIPDSSPLLQFGGQVRQRYLYTDDAQQTEAHLEIREDGTVGGAADQSPESLLQLKALKPGVIQILGVKTCRFLCQRPDGALYGSLHFDPEACSFRELLLEDGYNVYQSEAHGLPLHLPGNKSPHRDPAPRGPARFLPLPGLPPALPEPPGILAPQPPDVGSSDPFGLVGPSQVRSPSFE
# modifications: Cys 71: {2-[2-(2-{2-[2-(2-{2-[(S)-4-Carboxy-4-(17-carboxyheptadecanoylamino)butyrylamino]ethoxy}ethoxy)acetylamino]ethoxy}ethoxy)acetylamino]ethylcarbamoyl}methyl (modifying moiety III) on the sulphur atom
# B18: [-1A, S71C, L166F, S167G, M168L, G174V, Y179F, A180E, des181] FGF-21 (ligand)
# chain: AHPIPDSSPLLQFGGQVRQRYLYTDDAQQTEAHLEIREDGTVGGAADQSPESLLQLKALKPGVIQILGVKTCRFLCQRPDGALYGSLHFDPEACSFRELLLEDGYNVYQSEAHGLPLHLPGNKSPHRDPAPRGPARFLPLPGLPPALPEPPGILAPQPPDVGSSDPFGLVGPSQVRSPSFE
# B19: [-1A, S71C, L166F, S167G, M168L, P171L, S172E, Q173A, G174V, Y179F, A180E] FGF-21 (ligand)
# chain: AHPIPDSSPLLQFGGQVRQRYLYTDDAQQTEAHLEIREDGTVGGAADQSPESLLQLKALKPGVIQILGVKTCRFLCQRPDGALYGSLHFDPEACSFRELLLEDGYNVYQSEAHGLPLHLPGNKSPHRDPAPRGPARFLPLPGLPPALPEPPGILAPQPPDVGSSDPFGLVGLEAVRSPSFES
# B20: [-1A, S71C, N121Q, L166F, S167G, M168L, P171L, S172E, Q173A, G174V, Y179F, A180E] FGF-21 (ligand)
# chain: AHPIPDSSPLLQFGGQVRQRYLYTDDAQQTEAHLEIREDGTVGGAADQSPESLLQLKALKPGVIQILGVKTCRFLCQRPDGALYGSLHFDPEACSFRELLLEDGYNVYQSEAHGLPLHLPGQKSPHRDPAPRGPARFLPLPGLPPALPEPPGILAPQPPDVGSSDPFGLVGLEAVRSPSFES
# B21: Derivative 24: Analog 8 with modifying moiety III on the sulphur of Cys 71 (ligand)
# chain: AHPIPDSSPLLQFGGQVRQRYLYTDDAQQTEAHLEIREDGTVGGAADQSPESLLQLKALKPGVIQILGVKTCRFLCQRPDGALYGSLHFDPEACSFRELLLEDGYNVYQSEAHGLPLHLPGQKSPHRDPAPRGPARFLPLPGLPPALPEPPGILAPQPPDVGSSDPFGLVGLEAVRSPSFES
# modifications: Cys 71: {2-[2-(2-{2-[2-(2-{2-[(S)-4-Carboxy-4-(17-carboxyheptadecanoylamino)butyrylamino]ethoxy}ethoxy)acetylamino]ethoxy}ethoxy)acetylamino]ethylcarbamoyl}methyl (modifying moiety III) on the sulphur atom
# Target: human beta-Klotho (human, UniProt Q86Z14 1-1044)
# Assay: cell-based or functional assay
row,Binder,pERK-HEK293-Beta-klotho without HSA [EC50 (nM)] Median Value
1,B1,12.5 nM
2,B2,23.8 nM
3,B3,1.6 nM
4,B4,0.71 nM
5,B5,0.47 nM
6,B6,1.4 nM
7,B7,0.98 nM
8,B8,0.64 nM
9,B9,0.78 nM
10,B10,0.7 nM
11,B11,1.07 nM
12,B12,1.46 nM
13,B13,0.64 nM
14,B14,0.63 nM
15,B15,0.77 nM
16,B16,0.48 nM
17,B17,0.98 nM
18,B18,0.71 nM
19,B19,0.47 nM
20,B20,0.76 nM
21,B21,1.01 nM
